The values that follow come from the nanobody polyreactivity screen of Harvey et al. (2022).

A short description of this data set: yeast display, Sf9 membrane polyspecificity reagent, FACS + sequencing; frameworks hold sequencing errors. The essentials:
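Synthetic nanobody libraries on Saccharomyces cerevisiae BJ5465 were galactose-induced for 36–48 hours, stained 1 hour at 4 °C with 10% biotinylated, detergent-solubilized Sf9 membrane reagent and enriched on streptavidin microbeads. FACS then separated cells into low and high (top ~1%) gates by anti-HA (expression) and streptavidin (reagent binding) fluorescence. Genes were colony-PCR amplified, MiSeq 2 × 250 sequenced and CDR-length filtered. A clone's polyreactivity label is that of its gate of origin.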
Consider “QVQLVDSGGGLDQAGGSLRLSCAASGRIFGLYAMVWYRTAPGKEKELVAHIDVSDGSTYYADSVKGRFTISLDTAKNTVYLQMNRLKPEDTAVYYCNAEDSSRWYDWYLHDYWGQGTQVTVSS”, for which the “polyreactivity (PSR sort gate)” value is “high polyreactivity”. Turning to “QVQLVESGGGLVQAGGSLRLSCAASGRTFRLNAMGWYRQAPGKERELVAGIRVRAGTTYYADSVKGRFTISRDNAKNTVYLQRNSLKPEDTAVYYCAAESYSRSRKYDYWGQGTQVTVSS”, the “polyreactivity (PSR sort gate)” value was “high polyreactivity”. Regarding “QVQLVESGGGLVQAGGSLRLSCAASGNIFLFYAMGWYRQAPGKERELVATLSWRGVGTYYADSVKGRFTISRDKAKNTGYIQMNSLKPEDTAVYYCAARGVWPEYDYWGQGTQVTVSS”, the “polyreactivity (PSR sort gate)” value is on record as “low polyreactivity”. The entry for “QVQLVESGGGLVQAGGSLRLSCAASGFIFIRNAMGWYRQAPGKERELVAAISSGCRTYYADSVKGRFTISRDNAKNTVYLQMNSLKPEDTAVYYCATRPHRPRGHSVGQYDYWGQGTQVTVSS” is “high polyreactivity”. Then “QVQLVESGGGLVQAGGSLRLSCAASGLTFYSYAMGWYRQAPGKERELVATIRWSGGSTYYADSVKGRFTISRDNAKNTVYLQMNSLKPEDTAVYYCATSSTHSRGDEYWGQGTQVTVSS”, with “low polyreactivity”; and “QVQLVESGGGLVQAGGSLRLSCSASGFTSRKNAMGWYRQAPGKERELVAAITQSSGRTYYADSVKGRFTISRDNAKNTVYLQMNSLKPEDTAVYYCAARRGGEDDYWGQGTQVTVSS”, with “low polyreactivity”.

Take “QVQLVESGGGLVQAGGSLRLSCSASGSIFRYNAMGWYRQAPGKERELVAGITSGGSTNYADSVKGRFTISRDNAKNTVYLQMNSLKPEDTAVYYCATGTRSYYRWWRLMNYWGQGTQVTVSS”: the “polyreactivity (PSR sort gate)” value was “high polyreactivity”. Then “QVQLVESGGGLVQAGGSLRLSCAASGFTFSENAMGWYRQAPGKERELVADITNGASTNYADSVKGRFTISRDNEKNTVYLLMNSLKPEDTAVYYCATDSYPGLNPDFDYWGLGTQVTVSS”, with “low polyreactivity”; and “QVQLVESGGCLVQAGGSLRLSCAASGSTFGGNAMGWYRQAPGKERELVAAITIGGRTNYADSVKGRFTISRDNAKNTVYLQMNSLKPEDTAVYYCAKDRDQWQDYWGQGSQVTVSS”, with “low polyreactivity”; and “QVQLVESGGGLVQAGGSLRLSCAASGIILYYNALGWYRQAPGKERELLAAITTSGVSTYDADSVKGRFTISRDNAKNTVYLQMKSLKPEDTAVYYCNARARARYFYEMDYWGQGTQVTVSS”, with “low polyreactivity”. Regarding “QVQLVESGGGLVQAGGSLRLSCAASGRIISRYAMGWYRQAPGKERELVATITWSTTSTYYADSVKGRFTISRDNAKNTVYLQMNSLKPEDTAVYYCAASIIPGFRRDPFGYWGQGTQVTVSS”, the “polyreactivity (PSR sort gate)” value was “low polyreactivity”.

“QLQLVESGRGLVQAGGSLRLSCAASGRTFYFYGMGWYRQAPGKERELVASITRGTSTTYADSVKGRFTISRDNAKNTVYFQMNSLKPEDTAVYYCAARAWNYLTSYYIGGYEYWGQGTQVTVSS”: the “polyreactivity (PSR sort gate)” value is given as “low polyreactivity”.

Take “QVQLQESGGGLVQAGGSLRLSCAASGTIFWLWAMGWYCQAPGKERELVASISSGGTTYHADSVKGRFTISRDNAKNTVYLQMNSLKPEDTAVYYSAAFYVATAKLGFWGQGSQVTVSS”: the “polyreactivity (PSR sort gate)” value is reported as “low polyreactivity”. Then “QVQRVESAGGLVQAGGSLRLSCAPTGSIFSTNPMGWYSQSPGTERELVATITWSDGSTYYADSVKGRFTISRDNAKNTVYLQLNSLKPEDTAVYDCATPYKRDFYKGGDYWAQGTQVTVSS”, with “low polyreactivity”; and “QVQLVESGGGLVQAGGSLRLSCAASGRIFGVYTMGWSRQAPGKERELVAAITSGGNTNYADSVKGRFTISRDNAKNNVYLQMNSLKPEDTAVYYCAARSVRNFYYPGHNYRGQGTQVTVSS”, with “low polyreactivity”; and “QVQLVESGGGLVQAGGSLRLSCAATGRIFHRYAMGWYRQAPGKEREFVAAITYSTGTTYYADSVKGRFTISRDNAKNTVYLQMNSLKPEDTAVYYCAKVSRFWHKSWFAYGYDYWGQGTQVTVSS”, with “low polyreactivity”. With “QVQLVESGGGLVQAGGSLRLSCAASGFIFAFYDIGWYRQAPGKERELVAAISWGGSTYYADSVKGRFTISRDNAKNTVYLQMNSLKPEDTAVYYCAARLSRSYRYGYWGQGTQVTVSS”, the “polyreactivity (PSR sort gate)” value was “high polyreactivity”. The entry for “QVQLVESGGGLVQAGGSLRLSCAASGSIFYYNAMGWYRPAPGKERELVAAITWSGGTYYADSVKGRFTISRDNAKNTVYLQMNSLKPEDTAVYYCNGARLYKWSFTPKFEMDHWGQGTQVTVSS” is “low polyreactivity”; for “QVQLVESGGGLVQAGGSLRLSCAASGRTLGTNAMGWYRQAPGKERELVATISRGGITNYADSVKGRFTISRDNPKNTVYLQMNSLKPEDTAVYYCNVRYQHVYRGYGPNKYNYWGQGTQVTVSS” it is “high polyreactivity”. The entry for “QVQLVESGGGLVQAGCSLRLSCAASGSIFEPYVMGWYRQAPGKERELVAAIRQTGGSTYYADSVKGRFKISRDNAKNTVYLQMNSLKPEDNAFYYCNAEHNPSGLYDYRGVECEMGYWGQGNQVTVSS” is “low polyreactivity”; for “QVQLVESGGGLVQAGGSLRLSCAASGSMFYYYAMGWYRQAPGKERELVAAISSAGITNYADSVKGRFTISRDNAKNTVYLQMNSLKPEDTAVSYCAAAVFDIYWFLGEAYYFQYDYWGQGTQVTVSS” it is “high polyreactivity”; for “QVQLVESGGGLVQAGGSLRLSCAASGRTFYSNAMGWYRQAPGKERELVAAISSSGARTYYADSVKGRFTISRDNAKNTVYLQMNSLKPEDTAVYYCNAPTQYRYYWGQGTQVTVSS” it is “high polyreactivity”. The entry for “QVQLVESGGGLVQAGGSLRLSCAASGRTFRYYAMGWNRQAPGKESELVASISRSGGSTYYADSVKGRFTISRDNAKITVYLQMNSLKPEDTAVYYCAVGKGSHYLGFDYWGQGTQVTVSS” is “high polyreactivity”; for “QFQLVESGGGLVQAGGSLRLSCAASGLTFYAYARGWYRQAPGKDSELVAAISSGGSTSYADSVKGRFTISRDNAKYTVYLQMNSLKPEDTAVYYCAARPISSRFFGWGYNYWGQGTQVTVSS” it is “high polyreactivity”; for “QVQLVESGGGLVQAGGSLRLSCAASGSTFVPYAMGWYRQAPGKERELVAAISGTGGRTSYADSVKGRFTISRDNAKNTVYLQMNSLKPEDTAVYYCAAADGIYARYFFSRFPRFDYWGQGTQVTVSS” it is “low polyreactivity”. Turning to “QVQLVESGGGLVQAGGSLRLSCAASGFIFWRYAMGWYRQAPGKERELVASITSTGGSTYYADSVKGRFTISRDNAKNTVYLQMNSLKPEDTAVYYCAADTFVWADWSWHYYWGQGTQVTVSS”, the “polyreactivity (PSR sort gate)” value is recorded as “high polyreactivity”.

As for “QVHLVESGGGLVQAGGSLRLSCPASGRIFRVYAMGWYRQEPGKERELVAAISYSGGRTFYADSVKGRFTISRDNAKNTVYFQMNSLKPEDTAVYYGAAKSYYTQALPPFDYWGQGTQVTVSS”, the “polyreactivity (PSR sort gate)” value was “low polyreactivity”. “QVQLVESGGGLVQAGGSLRLSCAASGLIFPYYVMGWYRQAPGKERELVAAISVSGGNTYYADSVKGRFTISRDNAKNTVYLQMNSLKPEDTAVYYCAADHYRGSYDYWGQGTQVTVSS”: the “polyreactivity (PSR sort gate)” value is “high polyreactivity”.

“QVQLVESGGGLVQAGGSLRLSCAASGRTFAPYAMVWYRQAPGKERELVAAITYSGGSTYYADSVKGRFTISRDNAKNTVYLQMNSLIPADTAVYYCAADSDYDPYDYWGQGTQVTVSS”: the “polyreactivity (PSR sort gate)” value is on record as “low polyreactivity”. The entry for “QVQLVESGGGLVQAGGSLRLSCAASGRTFYIYAMGWYRQAPGKERELVARITTGGRTNYADSVKGRFTISRDNAKNTVYLQMNSLKPEDTAVYYCATQYRGRQRKYDYWGQGTQVTVSS” is “high polyreactivity”.

Consider “QVQLVESGGGLVQAGGSLRLSSAASGRTFPSYDMGWYRQAPGKERELVAAISSSGGSTYYADSVKGRFTISRDNAKNTVYLQMNSLKPEDTAVYYCAAATPSGYYYWGQGTQVTVSS”, for which the “polyreactivity (PSR sort gate)” value is on record as “high polyreactivity”. Then “QVQLVESGGGLVQAGGSLRLSCAASGITFGRNAMGWSRQAPGKERELVAAISRGGSTNYADSVKGRFTISRDNAKNTVYLQMTRLKPEDTAVYYCATAYRGRAWGYDYWGQGTQVTVSS”, with “high polyreactivity”; and “QVQLVESGGGLVQAGGSLRLSCAASGLTFYRNVMGWYRQAPGKERELVAAISGNGGSTYYADSVKGRFTISRDNAKNTVYLQMNSLKPEDTAVYYCATRAYDTGYGYWGQGTQVTVSS”, with “high polyreactivity”. As to “QVQLVESGGGLVQAGGSLRLSCAASGITFVPYAMGWYRQAPGKERELVAAISSSGGSTYYADSVKGRFTISRDNAKNTVYLQMNSLKPEDTAVYYCNVRTHSYIGMDYWGQGTQVTVSS”, the “polyreactivity (PSR sort gate)” value is reported as “low polyreactivity”. In the case of “QVQLVESGGGLVQAGGSLRLSCAASGSTFERYAMGWYRQAPGKKGSWLPYADSVKGRFTISRDNAKNTVYLQMNSLKPEDTAVYYCNAERYSPTLNLDRGWEYDYWGQGTQVTVSS”, the “polyreactivity (PSR sort gate)” value is on record as “low polyreactivity”.

As for “QVQLVESGGGLVMAVGSLRLSCAASGSTFAGNAMGWYRQAPGKERELVAAISIVGSTSYADSVKGRFTISRDNAKITFYLQMNSLKPEDTAVYDCAAEWVTSYLNYYHWGQGTQVTVSS”, the “polyreactivity (PSR sort gate)” value is “low polyreactivity”.

“QVQLVESGGGLVQAGGSLRLSCAASGSTFEYNAMRWYRQAPGKERELVAAITWSVGSTYYADSVKGRFTISRDNAKNSVSIQMNSLKPEDTAVDYCARVPSAFARWHTYDYWGQGTQVTVSS”: the “polyreactivity (PSR sort gate)” value is reported as “low polyreactivity”.

Consider “QVQLVESGGGLVQAGGSLRLSCAASGRIFIGNAMGWSRQAPGKERELVAAISSSGGSTYYADSVKGRFTISRDNAKNTVYLQMNSLKPEDTAVYYCAAETKNAPRFYPYSNEGYYYWGHGTQVTVSS”, for which the “polyreactivity (PSR sort gate)” value is listed as “low polyreactivity”.

On to “QVQLVESGGGLVQAGGSLRLSCAASGRIFYGYAMGWYRQAPGKERELVAAITYIGGPYYADSVKGRFTISRDNAKNTVYFQMNSQKPEDTAVYYCATEPFYTYGYYTYPYWYDYWGQGTQVTVSS”, for which the “polyreactivity (PSR sort gate)” value is “low polyreactivity”.

Consider “QVQLVESGGGLVQAGGSLRLSCAPSGSTFAYYAMGWYRQAPGKEREFVAAISTRGGSTYYADSVKGRFTISRDNAKNTVYFQMNSLKPEDTAVYYCAAGYFIYSWRIRFDYLGQGTQVTVSS”, for which the “polyreactivity (PSR sort gate)” value is “high polyreactivity”.

As to “QVQLVESGGGLVQAGGSLRLSCAASGRTFYWYVMGWYRQAPGKERELVAAITQTGSSTYYADSVKGRFTISRDNAKNTVYLQMNSLKPEDTAVYYCADRLSRNHYEVDYWGQGTQVTVSS”, the “polyreactivity (PSR sort gate)” value is on record as “low polyreactivity”.
